Among the data in PMC4906247 (2016) are response values, retold here.

B1: WT hDAPK2 expressed in HEK293T cells (CaM pull-down from lysate) [human] / calcium/calmodulin on Sepharose 4B (Sepharose 4B-CaM) [not stated] (parent complex)
chain 1: MFQASMRSPNMEPFKQQKVEDFYDIGEELGSGQFAIVKKCREKSTGLEYAAKFIKKRQSRASRRGVSREEIEREVSILRQVLHHNVITLHDVYENRTDVVLILELVSGGELFDFLAQKESLSEEEATSFIKQILDGVNYLHTKKIAHFDLKPENIMLLDKNIPIPHIKLIDFGLAHEIEDGVEFKNIFGTPEFVAPEIVNYEPLGLEADMWSIGVITYILLSGASPFLGDTKQETLANITAVSYDFDEEFFSQTSELAKDFIRKLLVKETRKRLTIQEALRHPWITPVDNQQAMVRRESVVNLENFRKQYVRRRWKLSFSIVSLCNHLTRSLMKKVHLRPDEDLRNCESDTEEDIARRKALHPRRRSSTS
chain 2: not shown

Variants of B1 are the subject of this test. Kind of test: CaM pull-down from HEK293T cell lysate, western blot; HEK293T transfected cells; EGTA-mediated elution on Sepharose 4B-CaM; read off a plot.
As to chain 1 W315D, the response was ~1 relative unit (normalized to W305D). The value for chain 1 R57E, chain 1 R60E, chain 1 R63E, chain 1 R64E, chain 1 W315D was ~0.42 relative unit (normalized to W305D).
